The target of experiment [1] is T1, full-length beta-Catenin (Uniprot ID P35222) (Homo sapiens (Human), UniProt P35222 2-781).
T1 construct: Used full-length in both the FP and the AlphaScreen assay; also called B-Catenin; bCat
T1 sequence: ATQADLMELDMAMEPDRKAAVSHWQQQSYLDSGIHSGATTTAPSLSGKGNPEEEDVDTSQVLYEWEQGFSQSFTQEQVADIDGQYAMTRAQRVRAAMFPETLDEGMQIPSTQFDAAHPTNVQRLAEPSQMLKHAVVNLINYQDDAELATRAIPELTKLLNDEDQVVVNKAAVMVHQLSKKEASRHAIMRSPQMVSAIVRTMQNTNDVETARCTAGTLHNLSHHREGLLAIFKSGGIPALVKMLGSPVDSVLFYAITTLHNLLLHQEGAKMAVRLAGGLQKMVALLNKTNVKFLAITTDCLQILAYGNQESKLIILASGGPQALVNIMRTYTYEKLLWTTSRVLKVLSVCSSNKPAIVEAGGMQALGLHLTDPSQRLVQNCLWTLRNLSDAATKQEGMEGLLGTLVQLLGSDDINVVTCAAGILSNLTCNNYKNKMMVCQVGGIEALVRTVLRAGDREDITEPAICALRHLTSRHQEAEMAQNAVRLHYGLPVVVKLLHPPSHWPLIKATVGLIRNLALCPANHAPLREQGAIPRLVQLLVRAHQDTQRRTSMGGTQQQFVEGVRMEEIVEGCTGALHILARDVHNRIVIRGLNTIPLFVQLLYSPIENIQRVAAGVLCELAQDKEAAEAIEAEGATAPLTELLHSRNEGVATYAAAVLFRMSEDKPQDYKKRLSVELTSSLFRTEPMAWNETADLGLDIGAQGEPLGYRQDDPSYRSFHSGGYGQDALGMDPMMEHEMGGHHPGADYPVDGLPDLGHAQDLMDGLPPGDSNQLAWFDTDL
As to the kind of experiment: AlphaScreen competition; full-length beta-catenin, biotin-TCF4(10-53) probe. In outline: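 Titrated peptide was preincubated 15 minutes at 20° C, then donor and acceptor beads were added for 60 minutes at 20° C protected from light. Reads were done in duplicate, and data were fitted to a 1:1 binding model with Hill slope; concentrations are final.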

For experiment [2], the target named is T1, full-length beta-Catenin (Uniprot ID …). Description: fluorescence polarization competition; full-length beta-catenin, 5FAM-TCF4(10-53) probe. The procedure: (§1) The plate was incubated protected from light for 60 minutes at 20° C. prior to read. Reads were performed on a CLARIOstar plate reader (BMG Labtech) in duplicate, and data were fitted to a 1:1 binding model with hill slope using an in-house script. All provided concentrations are final concentrations.

For experiment [3], the target named is T2, beta-Catenin (full-length, Uniprot ID P35222) (Homo sapiens (Human), UniProt P35222 1-781).
T2 construct: also called bCat; B-Catenin
T2 sequence: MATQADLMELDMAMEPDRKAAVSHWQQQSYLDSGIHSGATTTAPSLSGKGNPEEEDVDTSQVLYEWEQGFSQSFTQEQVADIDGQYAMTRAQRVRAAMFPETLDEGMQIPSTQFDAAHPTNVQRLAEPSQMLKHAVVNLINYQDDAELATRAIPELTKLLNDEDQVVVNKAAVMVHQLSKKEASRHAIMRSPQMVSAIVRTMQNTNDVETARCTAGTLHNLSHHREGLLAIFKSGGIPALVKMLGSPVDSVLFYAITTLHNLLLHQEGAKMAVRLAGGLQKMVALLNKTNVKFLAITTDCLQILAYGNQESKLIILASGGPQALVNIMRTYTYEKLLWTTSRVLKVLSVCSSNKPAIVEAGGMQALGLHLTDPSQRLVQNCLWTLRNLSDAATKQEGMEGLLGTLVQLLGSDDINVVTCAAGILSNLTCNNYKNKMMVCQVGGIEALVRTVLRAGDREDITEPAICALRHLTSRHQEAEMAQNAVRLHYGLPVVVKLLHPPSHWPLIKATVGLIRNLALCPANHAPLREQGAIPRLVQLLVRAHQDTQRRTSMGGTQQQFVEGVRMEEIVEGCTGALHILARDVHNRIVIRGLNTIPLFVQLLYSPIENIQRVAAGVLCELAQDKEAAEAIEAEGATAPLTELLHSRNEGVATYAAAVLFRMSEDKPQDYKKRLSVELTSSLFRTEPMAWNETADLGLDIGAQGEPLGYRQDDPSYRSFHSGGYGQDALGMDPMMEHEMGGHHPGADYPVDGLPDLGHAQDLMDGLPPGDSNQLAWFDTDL
Description: fluorescence polarization competition: peptide titrated against 10 nM full-length beta-catenin + 10 nM 5FAM-labeled TCF4 residues 10-53 probe. The procedure: as §1

For experiment [4], the target named is T3, full-length beta-Catenin (Uniprot ID P35222) (Homo sapiens (Human), UniProt P35222 1-781).
T3 construct: also called bCat
T3 sequence: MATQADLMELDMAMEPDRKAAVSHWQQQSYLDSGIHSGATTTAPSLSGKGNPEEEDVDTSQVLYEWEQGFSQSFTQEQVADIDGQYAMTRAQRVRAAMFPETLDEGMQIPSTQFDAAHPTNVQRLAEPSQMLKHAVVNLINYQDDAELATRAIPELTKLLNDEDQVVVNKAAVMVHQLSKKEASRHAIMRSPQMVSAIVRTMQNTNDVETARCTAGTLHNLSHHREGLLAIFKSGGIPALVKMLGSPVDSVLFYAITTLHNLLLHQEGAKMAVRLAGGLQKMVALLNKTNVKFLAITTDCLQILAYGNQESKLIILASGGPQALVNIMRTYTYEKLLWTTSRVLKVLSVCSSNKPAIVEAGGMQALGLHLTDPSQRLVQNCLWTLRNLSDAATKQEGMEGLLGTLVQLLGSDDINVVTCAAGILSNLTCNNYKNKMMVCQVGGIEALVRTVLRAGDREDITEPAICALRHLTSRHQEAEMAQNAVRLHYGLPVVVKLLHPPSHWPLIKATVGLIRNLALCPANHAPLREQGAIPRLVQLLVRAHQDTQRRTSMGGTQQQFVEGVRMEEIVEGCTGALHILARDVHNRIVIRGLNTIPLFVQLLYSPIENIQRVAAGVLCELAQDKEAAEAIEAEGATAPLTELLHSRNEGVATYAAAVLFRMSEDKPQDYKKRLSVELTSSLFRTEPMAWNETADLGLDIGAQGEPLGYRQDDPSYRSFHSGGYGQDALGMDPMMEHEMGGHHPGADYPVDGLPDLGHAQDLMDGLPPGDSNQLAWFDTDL
As to the kind of experiment: fluorescence polarization competition; full-length beta-catenin; competitor 5FAM-TCF4(10-53) probe. The procedure: as §1
(In fluorescence polarisation assays a small probe gives low polarisation when free and higher when bound to something large.)

Starred links: 1 amine or outer side, 2 acyl side, 3 side chain; linkers in the order of their positions; H or OH if unused. Positions of bridges follow the written chain, without caps; N, C: chain ends. Non-standard residues stand in square brackets, D forms with d. Primed or numbered codes have the meaning given here. PyrS2(3) = (S)-3-amino-1-((pent-4-en-1-yloxy)carbonyl)pyrrolidine-3-carboxylic acid, stapling residue, C=CCCCOC(=O)N1CC[C@@](N[*:1])(C(=O)[*:2])C1; B5(4) = 2,2-bis(4-pentenyl)glycine = 2-amino-2-(pent-4-en-1-yl)hept-6-enoic acid (stitching residue), C=CCCCC(CCCC=C)(N[*:1])C(=O)[*:2]; B5(20) = 2-amino-2-(pent-4-en-1-yl)hept-6-enoic acid = bis(4-pentenyl)glycine, stitching residue, C=CCCCC(CCCC=C)(N[*:1])C(=O)[*:2]; SdN = (S)-4-(((allyloxy)carbonyl)(methyl)amino)-2-amino-2-methylbutanoic acid, C=CCOC(=O)N(C)CC[C@](C)(N[*:1])C(=O)[*:2]; PyrS = (S)-1-((allyloxy)carbonyl)-3-aminopyrrolidine-3-carboxylic acid, C=CCOC(=O)N1CC[C@@](N[*:1])(C(=O)[*:2])C1; Phe(2-Cl) = N[C@@H](Cc1ccccc1Cl)C(=O)O; Phe(4-F) = N[C@@H](Cc1ccc(F)cc1)C(=O)O; Bta = N[C@@H](Cc1csc2ccccc12)C(=O)O; αAllylPro = C=CC[C@@]1(C(=O)O)CCCN1; tBuAla = CC(C)(C)C[C@H](N)C(=O)O; R8 = C=CCCCCCC[C@@](C)(N)C(=O)O; S8 = C=CCCCCCC[C@](C)(N)C(=O)O; R5 = C=CCCC[C@@](C)(N)C(=O)O

For orientation: EC50 means the concentration needed to bring the measured effect to its halfway point. High values mean a less potent agent, low ones a more potent agent. What is called IC50 is the midpoint of a concentration-inhibition curve.

B1: I-78 (peptide)
peptide: Ac-FDA[R8]DDAA[Phe(4-F)]V[PyrS]FWQ-NH2
modifications: staple 4-11
notes: Stapled peptide; also called Ac-Phe-Asp-Ala-R8-Asp-Asp-Ala-Ala-4FF-Val-PyrS-Phe-Trp-Gln-NH2
Consider B1, for which the results for the EC50 in experiment [1] and in experiment [2] were 7.48 µM and 5 µM, respectively.

B2: I-55 (peptide)
peptide: Ac-[αAllylPro]DA[B5(4)]DDAAFV[SdN]FWQ-NH2
modifications: staple 1-4, 4-11
notes: Stapled (stitched) peptide; also called Ac-PL3-Asp-Ala-B5-Asp-Asp-Ala-Ala-Phe-Val-SdN-Phe-Trp-Gln-NH2
Turning to B2, the EC50 in experiment [1] was 2.38 µM; in experiment [2], 5 µM.

B3: I-261: Ac-PL3-Asp-Ala-B5-Asp-Asp-Ala-Ala-Phe-Val-S8-4FF-Trp-Gln-NH2 (peptide)
peptide: Ac-[αAllylPro]DA[B5(4)]DDAAFV[S8][Phe(4-F)]WQ-NH2
modifications: staple 1-4, 4-11
notes: Stapled peptide
For the molecule B3, in experiment [3], the concentration for half-maximal inhibition (IC50) is 5 µM.

B4: I-1183 (peptide)
peptide: Ac-PD[tBuAla][R5]DDAAFN[PyrS2(3)][Phe(2-Cl)][Bta]Q-NH2
modifications: staple 4-11
notes: stapled peptide (single staple)
With B4, the EC50 in experiment [4] was 0.409 µM.

B5: I-262: Ac-PL3-Asp-Ala-B5-Asp-Asp-Ala-Ala-Phe-Val-S8-34FF-Trp-Gln-NH2 (peptide)
peptide: XDAXDDAAFVXFWQ
modifications: not fully specified; N-terminal Ac; PL3 at position 1; B5 at position 4; S8 at position 11; 34FF at position 12; C-terminal NH2; stapled by olefin metathesis (PL3-B5 and B5-S8)
notes: It is the earlier-eluting isomer composition
Regarding B5, the IC50 in experiment [3] came out at 5 µM.

B6: I-52 (peptide)
peptide: Ac-[αAllylPro]DA[B5(20)]DDAAFV[S8]FWQ-NH2
modifications: staple 1-4, 4-11
notes: Stapled (stitched) peptide; also called Ac-PL3-Asp-Ala-B5-Asp-Asp-Ala-Ala-Phe-Val-S8-Phe-Trp-Gln-NH2
As for B6, the EC50 in experiment [1] was determined as 0.158 µM; in experiment [2] it was 3.2 µM.
